Data set [1] addresses FcUbx isoform 1 (FcU1, FcUbx1), N-terminally truncated (Folsomia candida, UniProt A0AA95ZMF5 39-293). Description: EMSA; 0.2-1.5 pmol FcU1; 20 ul with EMSA buffer (5x: 0.1 M Tris, 25% glycerol, 0.2 mg/ml BSA), MgCl2 (2.5 M stock), DTT (1 M stock), poly(dI-dC), 20 ng Cy5 probe; 25 min at 25 C; 12% native PAGE on ice; pH not stated. The settings on record: protein: recombinant; tags: GST; label: 5'-Cy5 (both strands).

Data set [2] deals with FcUbx isoform 2 (FcU2, FcUbx2), N-terminally truncated (Folsomia candida, UniProt A0AA96CC73 39-288). Kind of data set: EMSA; 0.4-3 pmol FcU2; 20 ul with EMSA buffer (5x: 0.1 M Tris, 25% glycerol, 0.2 mg/ml BSA), MgCl2 (2.5 M stock), DTT (1 M stock), poly(dI-dC), 20 ng Cy5 probe; 25 min at 25 C; 12% native PAGE on ice; pH not stated. The settings on record: protein: recombinant; tags: GST; label: 5'-Cy5 (both strands). For orientation: Mobility shift assays separate free from complexed probe on a gel.

B1: DMXR (dsDNA)
DNA 1: GACAATATTTGGGAAATTAAATCATTCCCGCGGACAGTTTTATAGTGC
DNA 2: GCACTATAAAACTGTCCGCGGGAATGATTTAATTTCCCAAATATTGTC
With B1, the binding result in data set [1] and in data set [2] was “binds” in each case.

The values above are taken from publication PMC7616481, “The functional evolution of collembolan Ubx on the regulation of abdominal appendage formation”.
